This experiment deals with HLA-A*24 (human). Description: UV-exchange ELISA (anti-b2m); yield 50%-75%. For orientation: In an ELISA, binding on a coated surface is turned into a signal by an enzyme label.
For the molecule TYGMVMVTF, the peptide exchange yield fell in the range of 50 to 75%.
NYSSAVQKF yielded a peptide exchange yield of 50 to 75%.
For AYIKGGWIL, the peptide exchange yield was in the range of 50 to 75%.
SYLKAVFNL: the peptide exchange yield lay within 50 to 75%.
Regarding YYLSDSPLL, the peptide exchange yield was 50 to 75%.
In turn, DYIPASGFALF showed a peptide exchange yield of 50 to 75%.
Turning to RYLEAALRL, the peptide exchange yield fell in the range of 50 to 75%.
Regarding GYKTFFNEF, the peptide exchange yield was in the range of 50 to 75%.
As to NYYERIHAL, the peptide exchange yield lay in the range of 50 to 75%.
In the case of IYRFITERF, the peptide exchange yield lay in the range of 50 to 75%.
LYSELTETL registered a peptide exchange yield of 50 to 75%.
Consider SYLNHLNNL, for which the peptide exchange yield was in the range of 50 to 75%.
As for VFIHHLPQF, the peptide exchange yield was in the range of 50 to 75%.
In turn, SYLPAIWLL registered a peptide exchange yield of 50 to 75%.
With TYPDGTYTGRIF, the peptide exchange yield was 50 to 75%.
As for GYNPNRVFF, the figure is 50 to 75%.
IYQYVADNF came in with a peptide exchange yield of 50 to 75%.
For the molecule VYQSLSNSL, the peptide exchange yield fell in the range of 50 to 75%.
As for NYITGKGDVF, the figure is 50 to 75%; as for EYLSTCSKL, 50 to 75%.
As for EYFTPLLSGQF, the figure is 50 to 75%.
As for NYEDHFPLL, the peptide exchange yield fell in the range of 50 to 75%.
LYSDAFKFIVF: the peptide exchange yield lay in the range of 50 to 75%.
Take VYEKNGYIYF: the peptide exchange yield is 50 to 75%.
As for IYQFVADSF, the figure is 50 to 75%.
Molecule TYTNTLERL came in with a peptide exchange yield of 50 to 75%.
As for HYVPATKVF, the peptide exchange yield was 50 to 75%.
VYFKAGLDVF: the peptide exchange yield fell in the range of 50 to 75%.
Consider RYVEGIVSL, for which the peptide exchange yield was 50 to 75%.
TYIPVGLGRLL: the peptide exchange yield was 50 to 75%.
RYGFYYVEF gave a peptide exchange yield of 50 to 75%.
Regarding LYSPVPFTL, the peptide exchange yield was in the range of 50 to 75%.
As for LYLENNAQTQF, the figure is 50 to 75%; as for QYLTAAALHNL, 50 to 75%; as for PYFFANQEF, 50 to 75%.
For the molecule FYINGQYQF, the peptide exchange yield fell in the range of 50 to 75%.
FYVNVKEQF gave a peptide exchange yield of 50 to 75%.
LYSELNKWSF returned a peptide exchange yield of 50 to 75%.
As for PYLQDVPRI, the figure is 50 to 75%; as for LYLAFPLAF, 50 to 75%; as for RYSTFSEIF, 50 to 75%.
As for VYPPYLNYL, the peptide exchange yield lay in the range of 50 to 75%.
Regarding KYLMELTLI, the peptide exchange yield lay within 50 to 75%.
With RYGDGGSSF, the peptide exchange yield was in the range of 50 to 75%.
For the molecule VYALKVRTI, the peptide exchange yield is 50 to 75%.
For the molecule IYEETRGVL, the peptide exchange yield was in the range of 50 to 75%.
VYPVVLNQI came in with a peptide exchange yield of 50 to 75%.
Molecule KYPDIVQQF registered a peptide exchange yield of 50 to 75%.
In the case of KYLQVVGMF, the peptide exchange yield is 50 to 75%.

The values above are taken from US20170056486A1.
